Results published in patent WO2023190852A1.

Biological target: RBD derived from the Omicron strain (BA.3 strain) (SARS-CoV-2)

**Q.** With LY_CoV16 (antibody) as the substance, how does the binding inhibition rate (%) read?
**A.** < 80%

**Q.** AZD8895 (antibody) was tested. Which binding inhibition rate (%) did it give?
**A.** < 80%

**Q.** Which binding inhibition rate (%) does the source give for REGN10933 (antibody) here?
**A.** < 80%

**Q.** For ADG2 (antibody), which binding inhibition rate (%) is on record?
**A.** < 80%

**Q.** For AZD1061 (antibody), which binding inhibition rate (%) is on record?
**A.** < 80%

**Q.** For LY_CoV555 (antibody), which binding inhibition rate (%) is on record?
**A.** < 80%

**Q.** REGN10987 (antibody) was tested. Which binding inhibition rate (%) did it give?
**A.** < 80%

**Q.** How did the binding inhibition rate (%) turn out when S309 (antibody) was run?
**A.** < 80%
